We go through three molecules from patent US20160136272A1, “METHODS FOR RESTORING CORTICOSTEROID SENSITIVITY” (priority 2013, published 2016).

Assay [1] relates to PBMC. As to the kind of experiment: IP-10 production by donor PBMC in response to dsRNA and drug combinations (ELISA). The format is cell-based, human. As to conditions: for IP-10 production in response to polyIC, antibody combined with methotrexate, dexamethasone or Humira / IP-10 production in response to polyAU, antibody combined with methotrexate, dexamethasone or Humira: antibody 50 μg/ml plus dose range of drug; for IP-10 production in response to polyIC, antibody combined with methotrexate, dexamethasone or Humira / IP-10 production in response to polyIC: 30 μg/ml poly(I:C); for IP-10 production in response to polyIC, antibody combined with methotrexate, dexamethasone or Humira: donors 1 and 2; for IP-10 production in response to polyAU, antibody combined with methotrexate, dexamethasone or Humira: 300 μg/ml IPH3102, donor 2; for IP-10 production in response to polyIC / IP-10 production in response to polyAU: antibody 50 μg/ml; for IP-10 production in response to polyIC: 24 h, human donors 1 and 2; for IP-10 production in response to polyAU: 300 μg/ml IPH3102, 24 h, human donor 2. Here is the method: IP-10 production was assessed in human donors in response to polyAU (IPH3102), believed to be a specific agonist of TLR3, or plC, believed to be an agonist of TLR3 as well as other dsRNA receptors such as RIG-I and MDA-5. Fresh PBMC were isolated from whole blood of two independent donors. 1.5×10^6 (donor #1) and 3×10^6 (donor #2) PBMC per ml were incubated in flat-bottom 96W plates in the presence of 50 μg/ml 31C3 or 34A3 anti-human TLR3 mAbs and a dose range of methotrexate (300, 30 and 3 μg/ml), dexamethasone (200, 20, 2 μg/ml) or Humira® (100, 10, 1 μg/ml). Cells were incubated 1 hr at 37° C. prior addition of 300 μg/ml IPH3102 or 30 μg/ml poly(I:C). Cells were incubated for 24 additional hours at 37° C. Supernatant were then harvested to quantify IP10 production by ELISA. Cells were then recovered, stained with 7-AAD and analyzed by flow cytometry (FACS) to evaluate potential toxic effects of any drugs.

Assay [2] deals with BEAS-2B cell line. Nature of the assay: IL-6 and IP-10 production by BEAS-2B cells in response to polyAU (ELISA). The format is cell-based, human. As to conditions: 300 μg/ml IPH3102, 24 h. Here is the method:
IL-6 and IP-10 production was assessed in PBMC and virus-transformed lung epithelial BEAS-2B cell line in response to high molecular weight polyAU (IPH3102), a specific agonist of TLR3. Experiments with BEAS-2B were performed in Bronchial Epithelial Growth Medium (Lonza, #CC-3170). 2×10^4 BEAS-2B per well were plated in flat-bottom 96W plates in 100 μl culture medium and incubated over night at 37° C. A part of the cells was treated for 24-supplemental hours with 1000 UI/ml Intron A (Schering Plough, IFN-alpha 2b). Medium was discarded and 37B7 anti-human TLR3 Ab (0.01 and 0.1 μg/ml in the condition without Intron A and 0.01 and 0.3 μg/ml after treatment with Intron A) was added to the culture. Cells were incubated 30 min at 37° C. prior addition of Dexamethasone (1, 0.1, 0.01, 0.001 μg/ml in the condition […] and 10, 1, 0.1, 0.01 μg/ml after treatment with Intron A) or Budesonide (1, 0.1, 0.01, 0.001 μg/ml). Cells were incubated 30-additional min at 37° C. before addition of 300 μg/ml IPH3102. Cells were finally incubated for 24-additional hours and supernatants were harvested to quantify IL-6 and IP-10 production by ELISA.
(ELISA stands for enzyme-linked immunosorbent assay.)

B1: 34A3: anti-human TLR3 mAb; VH/VL SEQ ID NO 77/78 (antibody, listed as Mus musculus, V domains shown)
VH: MEWRWIFLFLLSGTTGVHSEIQLQQSGPELVKPGASVKVSCKASGYVFTTYSIYWVKQSHGKSLEWIGYIDPYNGDTSYNQKFKGKATLTVDKSSSTAYMHLNSLTSEDSTVYYCAREGNYYGYFDYWGQGTTLTVS
VL: MDFQVQIFSFLLMSASVIMSRGQIVLTQSPALMSASPGEKVTMTCSASSSVSYMFWYQQKPRSSPKPWIYLTSNLASGVPARFSGSGSGTSYSLTISSMEAEDAATYYCQQWTGNPPTFGGGTKLEIK
As for B1, in assay [1], the “IP-10 production in response to polyIC, antibody combined with methotrexate, dexamethasone or Humira” value is reported as “reduce IP-10 further”; the “IP-10 production in response to polyAU, antibody combined with methotrexate, dexamethasone or Humira” value is given as “reduce IP-10 further”; the “IP-10 production in response to polyIC” value is “substantially reduce IP-10 production”; the “IP-10 production in response to polyAU” value is “substantially reduce IP-10 production”.

B2: 31C3: anti-human TLR3 mAb, cell deposited as 31C3.1, CNCM I-4186; VH/VL SEQ ID NO 75/76 (antibody, listed as Mus musculus, V domains shown)
VH: MGWSWIFLFLLSGTAGVLSEVQLQQSGPELVKPGASVKISCKPSGYSFTAYYMHWVKQSHVKSLEWIGRINPYNGATSYNRNFKDKASLTVDKSSSTAYMELHSLTSEDSAVYYCARSGGNTYFDYWGQGTTLTVS
VL: MSVPTQVLGLLLLWLTGARCDIQMTQSPASLSASVGETVTITCRASENIYSSLAWYQQKQGKSPQLLVYNAKTLAEGVPSRFSGSGSGTQFSSLKINSLQPEDFGTYYCQHHYGTPPTFGGGTKLEIK
Consider B2, for which, in assay [1], the “IP-10 production in response to polyIC, antibody combined with methotrexate, dexamethasone or Humira” value is on record as “reduce IP-10 further”; the “IP-10 production in response to polyAU, antibody combined with methotrexate, dexamethasone or Humira” value is “reduce IP-10 further”; the “IP-10 production in response to polyIC” value is “substantially reduce IP-10 production”; the “IP-10 production in response to polyAU” value is on record as “substantially reduce IP-10 production”.

B3: 37B7: anti-human TLR3 Ab used in Example 11; VH/VL SEQ ID NO 71/72 (antibody, listed as Rattus norvegicus, V domains shown)
VH: QVQLQQSGTELVKPGSSVKISCKASGYTFTSNYMHWIRQLPGNGLEWIGWIFPGDGDTNYNQKFNGKATLTADKSSSTAYMQLSSLTSEDYAVYFCARSDGDWYFDFWGPGTMVTVSS
VL: DIQMTQSPGSLSASLGETVTIQCQASEDIYSGLAWYQQKPRKSPQLLISAASRLQDGVPSRFSGSGSGTQYSLKISSMQTEDEGVYFCQQGVKYPNTFGPGTKLELK
Take B3: in assay [2] (highest anti-TLR3 Ab dose), the “IL-6 production by BEAS-2B, anti-TLR3 Ab combined with dexamethasone or budesonide” value is reported as “strong additive inhibition”. Moreover, the “block of BEAS-2B IL-6 production” value in assay [2] (highest concentration of anti-TLR3 Ab) is about 50%.
